{
  "source": "patent US20240287175A1",
  "target": "mouse CD22 (mouse) (UniProt P35329)",
  "sequence (P35329 22-868)": "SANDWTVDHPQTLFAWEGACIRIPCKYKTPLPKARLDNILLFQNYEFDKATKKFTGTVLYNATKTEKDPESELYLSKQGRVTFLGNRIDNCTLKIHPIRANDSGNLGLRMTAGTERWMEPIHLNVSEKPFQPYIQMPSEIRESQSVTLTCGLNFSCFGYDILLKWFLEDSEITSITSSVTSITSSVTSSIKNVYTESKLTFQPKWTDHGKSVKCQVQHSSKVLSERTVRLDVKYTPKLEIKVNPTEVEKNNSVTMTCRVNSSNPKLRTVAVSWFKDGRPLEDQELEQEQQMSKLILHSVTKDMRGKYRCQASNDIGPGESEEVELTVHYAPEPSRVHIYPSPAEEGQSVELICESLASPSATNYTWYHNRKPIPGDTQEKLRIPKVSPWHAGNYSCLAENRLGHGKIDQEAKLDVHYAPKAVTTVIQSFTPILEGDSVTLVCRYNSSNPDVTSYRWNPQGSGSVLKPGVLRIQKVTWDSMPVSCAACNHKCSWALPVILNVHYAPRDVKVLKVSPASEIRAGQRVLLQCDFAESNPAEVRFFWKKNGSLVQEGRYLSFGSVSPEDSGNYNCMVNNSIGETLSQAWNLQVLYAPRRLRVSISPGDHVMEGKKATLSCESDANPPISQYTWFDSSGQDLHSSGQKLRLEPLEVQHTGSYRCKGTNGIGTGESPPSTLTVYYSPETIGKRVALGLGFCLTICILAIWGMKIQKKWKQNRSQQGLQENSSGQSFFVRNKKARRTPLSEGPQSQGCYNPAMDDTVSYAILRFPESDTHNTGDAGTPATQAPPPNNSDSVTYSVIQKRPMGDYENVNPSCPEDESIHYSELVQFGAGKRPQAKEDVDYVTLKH",
  "test": "cell-based or functional assay",
  "data": [
    {"substance": "mouse monoclonal anti-CD22 antibody (Cy34, BioXCell)", "values": [
      {"measurement": "receptor occupancy necessary to achieve IC50 in the pSHP1/SHP1 assay", "result": "< 50", "unit": "%"}
    ]}
  ]
}
